Reference: patent publication US20170247475A1 (Boehringer Ingelheim, published 2017)
Numbering of substitutions follows the chain as printed.

B1: VEGFBII23A03 (VHH)
VHH: EVQLVESGGGLVQPGDSLKLSCVASGRTFSSYSMGWFRQAQGKEREFVVAISSGGYIYDSVSLQGRFTISRDNTKNTVYLQTPSLKPEDTAVYYCAASRAYGSSRLRLADTYDYWGQGTQVTVSS
notes: periplasmic extract
B2: VEGFBII22A11 (VHH)
VHH: B1 VHH with V23A, A24F, G35A, Y56F, S60A, Q64E
notes: periplasmic extract
B3: VEGFBII22E04 (VHH)
VHH: B1 VHH with F29S, Y56S, G102A
notes: periplasmic extract
B4: VEGFBII23A08 (VHH)
VHH: B1 VHH with P14T, K19R, S53N, I57K, Q64E, T82I, P83N
notes: periplasmic extract
B5: VEGFBII23D11 (VHH)
VHH: B1 VHH with K19R, V23A, A24F, G35A, Y56F, S60A, Q64E
notes: periplasmic extract
B6: VEGFBII23E05 (VHH)
VHH: B1 VHH with G8E, F29S
notes: periplasmic extract
B7: VEGFBII27D08 (VHH)
VHH: B1 VHH with P14T, K19R, V23A, I57K, Q64E, K75Q, T82I, P83N, S104G
notes: periplasmic extract
B8: VEGFBII27G07 (VHH)
VHH: B1 VHH with F29S, K43Q
notes: periplasmic extract
B9: VEGFBII30C09 (VHH)
VHH: B1 VHH with V23I, F29S, K43Q
notes: periplasmic extract; also called VEGFBII30009
B10: VEGFBII40F02 (VHH)
VHH: B1 VHH with V23A, A24F, G35A, Y56F, S60A, Q64E, D89G
notes: periplasmic extract
B11: VEGFBII41B05 (VHH)
VHH: B1 VHH with D16G, K19R, V23A, A24F, Y56F, S60A, Q64E
notes: periplasmic extract
B12: VEGFBII41G03 (VHH)
VHH: B1 VHH with V23A, A24F, G35A, Y56F, S60A, Q64E, D72E
notes: periplasmic extract
B13: VEGFBII42F11 (VHH)
VHH: B1 VHH with F29S, M34V
notes: periplasmic extract
B14: VEGFBII61A01 (VHH)
VHH: B1 VHH with P14A, D16G, K19R, V23A, A24F, I57K, S60A, Q64E, G102A
notes: periplasmic extract
B15: VEGFBII62F02 (VHH)
VHH: B1 VHH with V23A, A24F, S52A, S60A, Q64E, N76D
notes: periplasmic extract
B16: VEGFBII22A10 (VHH)
VHH: EVQLVESGGGLVQPGDSLKLSCAFSGRTFSSYSMGWFRQAQGKEREFVVAISSSGGYIYDSVSLEGRFTISRDNTKNTVYLQTPSLKPEDTADYYCAASRAYGSSRLRLADTYDYWGQGTQVTVSS
notes: periplasmic extract
B17: VEGFBII22B06 (VHH)
VHH: B16 VHH with F24A, D93V
notes: periplasmic extract
B18: VEGFBII22B07 (VHH)
VHH: B16 VHH with P14A, K19R, F24A, G56N, I58K, T83I, P84N, D93V, A110G
notes: periplasmic extract
B19: VEGFBII23A09 (VHH)
VHH: B16 VHH with S30G, T75S, D93V, A110P
notes: periplasmic extract
B20: VEGFBII23F05 (VHH)
VHH: B16 VHH with P14A, K19R, F24A, G56N, I58K, T83I, P84N, E89K, D93V, A110G
notes: periplasmic extract
B21: VEGFBII23F11 (VHH)
VHH: B16 VHH with S54G
notes: periplasmic extract
B22: VEGFBII23G03 (VHH)
VHH: B16 VHH with S30G, T75S, D93V, A110P, D111G
notes: periplasmic extract
B23: VEGFBII30E07 (VHH)
VHH: B16 VHH with P14A, K19R, F24A, G56N, I58K, T83I, P84N, D93V, A110G, Q121R
notes: periplasmic extract
B24: VEGFBII31C07 (VHH)
VHH: B16 VHH with P14T, K19R, F24A, R27G
notes: periplasmic extract
B25: VEGFBII39E02 (VHH)
VHH: B16 VHH with S17P
notes: periplasmic extract
B26: VEGFBII39G04 (VHH)
VHH: EVPLVESGGGLVQAGDSLRLSCAASGRTFSSYSMGWFRQAQGKEREFVVAISSSGNYKYDSASLEGRFTISRDNTKNTVYLQINSLKPEDTAVYYCAASRAYGSSRLRLGDTYDYWGQGTQVTVSS
notes: periplasmic extract
B27: VEGFBII40G07 (VHH)
VHH: B16 VHH with T78A
notes: periplasmic extract
B28: VEGFBII40H10 (VHH)
VHH: B16 VHH with V5M
notes: periplasmic extract
B29: VEGFBII42A05 (VHH)
VHH: B16 VHH with T83M
notes: periplasmic extract
B30: VEGFBII42D05 (VHH)
VHH: B16 VHH with D93V
notes: periplasmic extract
B31: VEGFBII56E11 (VHH)
VHH: B16 VHH with T91A
notes: periplasmic extract
B32: VEGFBII60A09 (VHH)
VHH: B16 VHH with K76R
notes: periplasmic extract
B33: VEGFBII62A09 (VHH)
VHH: B16 VHH with G10D, F24A, D93V
notes: periplasmic extract
B34: VEGFBII62D10 (VHH)
VHH: B26 VHH with P3Q, G8E, A62V
notes: periplasmic extract
B35: VEGFBII111D05 (VHH)
VHH: EVQLVESGGGLVQTGGSLRLSCEASGRTFSSYSMGWFRQAPGKEREFVVAISKGGYKYDSVSLEGRFTISRDNAKNTVYLQINSLRPEDTAVYYCASSRAYGSSRLRLADTYEYWGQGTLVTVSS
B36: VEGFBII111G06 (VHH)
VHH: B35 VHH with T14P, E23A, I82M
B37: VEGFBII112D11 (VHH)
VHH: B35 VHH with T14P
B38: VEGFBII113A08 (VHH)
VHH: B35 VHH with A24V, R71K
B39: VEGFBII113E03 (VHH)
VHH: B35 VHH with G16D, A24V, P41Q, R71K, I82M
B40: VEGFBII114C09 (VHH)
VHH: B35 VHH with T14P, G16D, A24V, R71K
B41: VEGFBII114D02 (VHH)
VHH: B35 VHH with A24V

Experiments:
[1] = biological target: T1, recombinant human VEGF165 (human, UniProt P15692-4 27-191); assay: Biacore, periplasmic extract on hVEGF165 chip
T1 construct: also called hVEGF165; rhVEGF165
T1 sequence (P15692 other isoform, or with tags, fused parts or gaps limits assumed): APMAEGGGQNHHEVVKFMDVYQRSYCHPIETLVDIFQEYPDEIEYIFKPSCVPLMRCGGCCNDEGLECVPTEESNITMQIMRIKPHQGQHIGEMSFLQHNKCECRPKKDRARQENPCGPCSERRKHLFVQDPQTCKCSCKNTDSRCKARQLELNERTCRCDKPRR
Description: (§1) Dissociation rates of inhibitory VHHs are analyzed on Biacore (Biacore T100 instrument, GE Healthcare). HBS-EP+ buffer is used as running buffer and experiments are performed at 25° C. […] After immobilization, surfaces are deactivated with 10 min injection of 1M ethanolamine pH8.5. A reference surface is activated and deactivated with respectively EDC/NHS and ethanolamine. Periplasmic extracts of VHHs are injected at a 10-fold dilution in running buffer for 2 min at 45 μl/min and allowed to dissociate for 10 or 15 min. Between different samples, the surfaces are regenerated with regeneration buffer. Data are double referenced by subtraction of the curves on the reference channel and of a blank running buffer injection. […] is evaluated by fitting a two phase decay model in the Biacore T100 Evaluation software v2.0.1.

[2] = biological target: T1, recombinant human VEGF165; assay: Biacore, periplasmic extract on hVEGF165 chip, two phase decay fit
Description: as §1

[3] = biological target: T1, recombinant human VEGF165; assay: VEGF165/VEGFR2 AlphaScreen

| Binding level (RU) [1] | % fast [2] | % inhibition [3] | IC50 [3] | Binder |
| --- | --- | --- | --- | --- |
| 487 RU | 15% |  |  | B1 |
| 461 RU | 12% |  |  | B2 |
| 520 RU | 14% |  |  | B3 |
| 502 RU | 19% |  |  | B4 |
| 510 RU | 13% |  |  | B5 |
| 275 RU | 18% |  |  | B6 |
| 225 RU | 13% |  |  | B7 |
| 471 RU | 18% |  |  | B8 |
| 264 RU | 19% |  |  | B9 |
| 258 RU | 20% |  |  | B10 |
| 324 RU | 16% |  |  | B11 |
| 332 RU | 20% |  |  | B12 |
| 100 RU | 46% |  |  | B13 |
| 275 RU | 21% |  |  | B14 |
| 205 RU | 21% |  |  | B15 |
| 229 RU | 19% |  |  | B16 |
| 168 RU | 23% |  |  | B17 |
| 328 RU | 31% |  |  | B18 |
| 247 RU | 20% |  |  | B19 |
| 198 RU | 29% |  |  | B20 |
| 134 RU | 22% |  |  | B21 |

| Binding level (RU) [1] | % fast [2] | % inhibition [3] | IC50 [3] | Binder |
| --- | --- | --- | --- | --- |
| 141 RU | 28% |  |  | B22 |
| 226 RU | 29% |  |  | B23 |
| 77 RU | 25% |  |  | B24 |
| 181 RU | 13% |  |  | B25 |
| 210 RU | 40% |  |  | B26 |
| 139 RU | 19% |  |  | B27 |
| 200 RU | 17% |  |  | B28 |
| 118 RU | 25% |  |  | B29 |
| 77 RU | 26% |  |  | B30 |
| 76 RU | 24% |  |  | B31 |
| 106 RU | 20% |  |  | B32 |
| 84 RU | 23% |  |  | B33 |
| 94 RU | 40% |  |  | B34 |
|  |  | 100% | 0.209 nM | B35 |
|  |  | 100% | 0.366 nM | B36 |
|  |  | 100% | 0.221 nM | B37 |
|  |  | 100% | 0.253 nM | B38 |
|  |  | 100% | 0.29 nM | B39 |
|  |  | 100% | 0.215 nM | B40 |
|  |  | 100% | 0.199 nM | B41 |
